Assay results from patent US20090053184A1.

Legend:
Assay in all cases: chromium release; transduced lymphocytes against T2 cells having HLA-A2 pulsed with 'NY-ESO-1 peptide'; which of the listed peptides not given; full-length, on cells
Settings in all cases: chains Valpha:Vbeta
[1] = biological target: T1, NY-ESO-1 peptide on HLA-A*02:01 (human)
T1 chain: SLLMWTTQC

[2] = biological target: T2, NY-ESO-1 peptide on HLA-A*02:01 (human)
T2 chain: SLLMWTTQCFLP

[3] = biological target: T3, NY-ESO-1 peptide on HLA-A*02:01 (human)
T3 chain: SLLMWTTQV

Measured: lowest peptide concentration that stimulated killing

B1: anti-NY-ESO-1 TCR (SEQ ID NOS: 6 and 8) (protein)
chain 1: SQQGEEDPQALSIQEGENATMNCSYKTSINNLQWYRQNSGRGLVHLILIRSNEREKHSGRLRVTLDTSKKSSSLLITASRAADTASYFCATDGAGKSTFGDGTTLTVKP
chain 2: DAGVIQSPRHEVTEMGQEVTLRCKPISGHDYLFWYRQTMMRGLELLIYFNNNVPIDDSGMPEDRFSAKMPNASFSTLKIQPSEPRDSAVYFCASTIGAQPQHFGDGTRLSIL
< 0.02 nM: all assays above
